Data on 7 molecules can be found in patent US20240199727A1 (INVETX, published 2024).

Test [1] addresses T1, canine NGF tagged at the C-terminus with the Flag tag (canine, UniProt A0A8I3PYI3 122-241).
T1 construct: Baculovirus expression
Put plainly: SPR Biacore T200; antibody captured on protein A chip, NGF analyte.
T1 sequence (A0A8I3PYI3 entry or part of it): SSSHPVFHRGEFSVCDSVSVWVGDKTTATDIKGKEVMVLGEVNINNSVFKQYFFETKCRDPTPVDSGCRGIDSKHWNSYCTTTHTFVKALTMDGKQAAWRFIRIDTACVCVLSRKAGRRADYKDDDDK
Experimental: The running buffer was HBS-EP buffer (10 mM HEPES, pH 7.4, 150 mM NaCl, 3 mM EDTA, 0.005% tween 20) and the instrument temperature was set at 25 °C. […] The binding signals were corrected for the blank and the resulting sensorgram (FIG. 5) was used to determine the rate constants (kₐ and kd) and binding affinity (KD) using a one-to-one binding model with the BIAEVAL software.

The target of test [2] is canine NGF tagged at the C-terminus with the Flag tag (canine). Put plainly: SPR, Biacore T200; antibody captured on anti-feline CM5 chip, NGF analyte, 1:1 fit.
canine NGF tagged at the C-terminus with the Flag tag (canine), sequence (chain, as listed by the source): as the sequence (A0A8I3PYI3 entry or part of it) above
Test [3] addresses T2, canine NGF tagged at the C-terminus with the Flag tag (canine, UniProt A0A8I3PYI3 122-241).
T2 construct: mature; also called feline NGF (processed form identical)
Put plainly: SPR competition; Ab pre-incubated with 50 nM NGF at Ab to NGF ratio 1 to 1, injected over captured feline p75 (competitor).
T2 sequence (A0A8I3PYI3 entry or part of it): as above

Test [4] addresses T2, canine NGF tagged at the C-terminus …. Put plainly: SPR competition; Ab pre-incubated with 50 nM NGF at Ab to NGF ratio 5 to 1, injected over captured feline p75 (competitor).
For test [5] the target is unchanged. Put plainly: SPR competition; Ab pre-incubated with 10 nM NGF at Ab to NGF ratio 10 to 1, injected over captured feline TrkA (competitor).
Target sequence in this assay (A0A8I3PYI3 entry or part of it): as above
Test [6] shares this target. Put plainly: SPR competition; Ab pre-incubated with 10 nM NGF at Ab to NGF ratio 50 to 1, injected over captured feline TrkA (competitor).
Target sequence in this assay (A0A8I3PYI3 entry or part of it): as above

B1: canine 2166 chimeric antibody (antibody, V domains shown)
VH: QVQLKESGPGLVQPSQTLSLTCTVSGLSLTSNSVSWIRQPPGKGLEWMGVIWSNGGTDYNSAIESRLSINRDTSKSQVFLKMNSLQPEDTAMYFCASIYYYDADYLHWYFDFWGPGTMVTVSS
VL: DIQMTQSPASLSASLGETVSIECLASEGISNSLAWYQLKPGKSPQFLIYATSSLQDGVPSRFSGSGSGTQYSLKISGMQPEDEGVYYCQQGYKFPLTFGSGTKLKIKR
notes: also called canine chimeric antibody
As to B1, the koff in test [1] stood at 3.5e-06 s⁻¹.

B2: SC-184_76 (antibody, from a related filing, V domains shown)
VH: DVQLVESGGDLVKPGGSLRLTCVASGLSLTSDSMSWVRQAPGKGLQWVSTLWSNGGTYYTDSVKGRFTISKDNAENTLYLQMNNLKTEDTATYYCASIYYYEADYLHWYFDFWGQGALVTVSS
VL: EIQMTQSPTSLSASVGDRVTITCRASEGIANNLSWYQQTPGKAPKLLIYATSNLHSGVPSRFSGSGSGTDFTLTISSLQPEDFATYYCQQGFKWPLTFGGGTKLEIT
Consider B2, for which, in test [2], the Kd stood at 0.472 nM, the koff worked out at 0.000396 s⁻¹ and the kon was determined as 838000 M⁻¹ s⁻¹.

B3: SC-184_110-Arg (antibody, V domains shown)
VH: DVQLVESGGDLVKPGGSLRLTCVASGLSLTSASMSWVRQAPGKGLQWVSTIYSNRGTYYTDSVKGRFTISKDNAENTLYLQMNNLKTEDTATYYCASIYYYEAEYLHWYFDFWGQGALVTVSS
VL: EIQMTQSPTSLSASVGDRVTITCRASEGISKNLSWYQQTPGKAPKLLIYATDNLHSGVPSRFSGSGSGTDFTLTISSLQPEDFATYYCQQGWKWPLTFGGGTKLEIT
Turning to B3, the “% Block” value in test [3], in test [4], in test [5] and in test [6] was 100% each time.

B4: SC-184_110 (antibody, from a related filing, IgG1a, V domains shown)
VH: DVQLVESGGDLVKPGGSLRLTCVASGLSLTSASMSWVRQAPGKGLQWVSTIYSNGGTYYTDSVKGRFTISKDNAENTLYLQMNNLKTEDTATYYCASIYYYEAEYLHWYFDFWGQGALVTVSS
VL: EIQMTQSPTSLSASVGDRVTITCRASEGISKNLSWYQQTPGKAPKLLIYATDNLHSGVPSRFSGSGSGTDFTLTISSLQPEDFATYYCQQGWKWPLTFGGGTKLEIT
In test [2], B4 had a Kd of 0.773 nM, an off-rate (koff) of 0.00038 s⁻¹ and an on-rate constant (kon) of 492000 M⁻¹ s⁻¹.

B5: felinized clone 101 (antibody, V domains shown)
VH: DVQLVESGGDLVKPGGSLRLTCVASGLSLTSSSMSWVRQAPGKGLQWVSTIYSNGGTYYTDSVKGRFTISKDNAENTLYLQMNNLKTEDTATYYCASIYYYDADYLHWYFDFWGQGALVTVSS
VL: EIQMTQSPTSLSASVGDRVTITCRASEGISNNLSWYQQTPGKAPKLLIYATSNLHSGVPSRFSGSGSGTDFTLTISSLQPEDFATYYCQQGYKWPLTFGGGTKLEIT
With B5, the “% Block” value was determined as 42% in test [3], 87% in test [4], 15% in test [5] and 76% in test [6].

B6: SC-184_76-Arg (antibody, V domains shown)
VH: DVQLVESGGDLVKPGGSLRLTCVASGLSLTSDSMSWVRQAPGKGLQWVSTLWSNRGTYYTDSVKGRFTISKDNAENTLYLQMNNLKTEDTATYYCASIYYYEADYLHWYFDFWGQGALVTVSS
VL: EIQMTQSPTSLSASVGDRVTITCRASEGIANNLSWYQQTPGKAPKLLIYATSNLHSGVPSRFSGSGSGTDFTLTISSLQPEDFATYYCQQGFKWPLTFGGGTKLEIT
Consider B6, for which the “% Block” value in test [3] was 100%; in test [4], 100%; in test [5] it was 99%; in test [6] it was 100%.

B7: AHF17602 (antibody, V domains shown)
VH: DVQLVESGGDLVKPGGSLRLTCVASGLSLTSSSMVWVRQAPGKGLQWVSTIYSNRGTYYTDSVKGRFTISKDNAENTLYLQMNNLKTEDTATYYCASIYYYDADYLHWYFDFWGQGALVTVSS
VL: EIQMTQSPTSLSASVGDRVTITCRASEGIANNLSWYQQTPGKAPKLLIYATSNLHSGVPSRFSGSGSGTDFTLTISSLQPEDFATYYCQQGYKWPLTFGGGTKLEIT
In the case of B7, the “% Block” value is 100% in test [3], 100% in test [4], 99% in test [5] and 100% in test [6].
